Source: IntAct's records for PubMed 9830048

B1: Synaptotagmin-1 (Rattus norvegicus (Rat)), P21707 (parent)
chain: MVSASHPEALAAPVTTVATLVPHNATEPASPGEGKEDAFSKLKQKFMNELHKIPLPPWALIAIAIVAVLLVVTCCFCVCKKCLFKKKNKKKGKEKGGKNAINMKDVKDLGKTMKDQALKDDDAETGLTDGEEKEEPKEEEKLGKLQYSLDYDFQNNQLLVGIIQAAELPALDMGGTSDPYVKVFLLPDKKKKFETKVHRKTLNPVFNEQFTFKVPYSELGGKTLVMAVYDFDRFSKHDIIGEFKVPMNTVDFGHVTEEWRDLQSAEKEEQEKLGDICFSLRYVPTAGKLTVVILEAKNLKKMDVGGLSDPYVKIHLMQNGKRLKKKKTTIKKNTLNPYYNESFSFEVPFEQIQKVQVVVTVLDYDKIGKNDAIGKVFVGYNSTGAELRHWSDMLANPRRPIAQWHTLQVEEEVDAMLAVKK

Variants of: B1
Conditions: with cac1b_rat Cacna1b

Q: With MVSASHPEALAAPVTTVATLVPHNATEPASPGEGKEDAFSKLKQKFMNELHKIPLPPWALIAIAIVAVLLVVTCCFCVCKKCLFKKKNKKKGKEKGGKNAINMKDVKDLGKTMKDQALKDDDAETGLTDGEEKEEPKEEEKLGKLQYSLDYDFQNNQLLVGIIQAAELPALDMGGTSDPYVKVFLLPDKKKKFETKVHRKTLNPVFNEQFTFKVPYSELGGKTLVMAVYDFDRFSKHDIIGEFKVPMNTVDFGHVTEEWRDLQSAEKEEQEKLGDICFSLRYVPTAGKLTVVILEAKNLKKMDVGGLSDPYVKIHLMQNGKRLKKAATTIKKNTLNPYYNESFSFEVPFEQIQKVQVVVTVLDYDKIGKNDAIGKVFVGYNSTGAELRHWSDMLANPRRPIAQWHTLQVEEEVDAMLAVKK [K326A;K327A] as the variant, how does the “effect of a mutation on the interaction” value read?
A: The value was “decreasing interaction”.

Variants of: B1
Conditions: with ap2a2_rat Ap2a2, P18484
Chain of ap2a2_rat Ap2a2, P18484 (P18484 whole entry): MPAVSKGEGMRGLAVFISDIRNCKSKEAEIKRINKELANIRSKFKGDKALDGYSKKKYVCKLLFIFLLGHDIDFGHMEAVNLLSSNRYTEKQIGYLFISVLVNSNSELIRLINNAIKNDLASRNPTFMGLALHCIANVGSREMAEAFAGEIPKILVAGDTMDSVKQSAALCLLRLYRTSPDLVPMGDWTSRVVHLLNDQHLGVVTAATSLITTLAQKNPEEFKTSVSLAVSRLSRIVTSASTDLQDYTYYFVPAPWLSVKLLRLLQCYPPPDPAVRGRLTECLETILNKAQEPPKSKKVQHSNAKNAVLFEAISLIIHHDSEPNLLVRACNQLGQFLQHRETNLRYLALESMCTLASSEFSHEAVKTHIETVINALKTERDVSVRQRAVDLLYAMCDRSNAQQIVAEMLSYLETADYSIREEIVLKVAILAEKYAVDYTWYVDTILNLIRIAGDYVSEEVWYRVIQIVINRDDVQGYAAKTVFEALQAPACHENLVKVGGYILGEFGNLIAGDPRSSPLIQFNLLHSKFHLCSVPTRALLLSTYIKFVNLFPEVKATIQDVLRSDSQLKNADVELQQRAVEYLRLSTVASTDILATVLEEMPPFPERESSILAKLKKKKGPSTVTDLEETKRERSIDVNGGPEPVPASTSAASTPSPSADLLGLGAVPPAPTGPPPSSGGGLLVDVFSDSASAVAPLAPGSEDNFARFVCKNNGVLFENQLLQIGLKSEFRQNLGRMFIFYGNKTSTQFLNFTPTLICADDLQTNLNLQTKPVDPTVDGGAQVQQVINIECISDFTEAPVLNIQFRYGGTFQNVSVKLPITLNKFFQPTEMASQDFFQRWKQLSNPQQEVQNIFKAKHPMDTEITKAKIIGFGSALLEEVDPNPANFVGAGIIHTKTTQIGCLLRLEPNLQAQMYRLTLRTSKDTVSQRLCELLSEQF

Q: With MVSASHPEALAAPVTTVATLVPHNATEPASPGEGKEDAFSKLKQKFMNELHKIPLPPWALIAIAIVAVLLVVTCCFCVCKKCLFKKKNKKKGKEKGGKNAINMKDVKDLGKTMKDQALKDDDAETGLTDGEEKEEPKEEEKLGKLQYSLDYDFQNNQLLVGIIQAAELPALDMGGTSDPYVKVFLLPDKKKKFETKVHRKTLNPVFNEQFTFKVPYSELGGKTLVMAVYDFDRFSKHDIIGEFKVPMNTVDFGHVTEEWRDLQSAEKEEQEKLGDICFSLRYVPTAGKLTVVILEAKNLKKMDVGGLSDPYVKIHLMQNGKRLKKAATTIKKNTLNPYYNESFSFEVPFEQIQKVQVVVTVLDYDKIGKNDAIGKVFVGYNSTGAELRHWSDMLANPRRPIAQWHTLQVEEEVDAMLAVKK [K326A;K327A] as the variant, how does the “effect of a mutation on the interaction” value read?
A: Its value is “decreasing interaction”.
